The target in assay [1] is FP-rTT monomer (HIV-1 Env fusion peptides conjugated to monomeric rTT) (HIV-1). Kind of assay: isothermal titration calorimetry (ITC), Fab against conjugate. For orientation: Isothermal titration calorimetry measures the heat released or taken up as one component is titrated into another.
Assay [2] addresses LS-Spy-rTT-FP8v1/PEG2 nanoparticle carrier (HIV-1). The assay is described as above.

For one substance, competent Fab binding sites per entity (ITC stoichiometry) (binding sites per FP-rTT monomer) and competent Fab binding sites per entity (ITC stoichiometry) (binding sites per nanoparticle carrier) results are on record in patent US20210353740A1.

“And” between values parts separate entries of the source, which are not always exact repeats. Equal entries are not always repeated.

With VRC34.01 Fab, the competent Fab binding sites per entity (ITC stoichiometry) (binding sites per FP-rTT monomer) in assay [1] is 6. For the same substance, the competent Fab binding sites per entity (ITC stoichiometry) (binding sites per nanoparticle carrier) in assay [2] is 152 and 402.
